Test results from patent US20040235064A1 (YALE UNIVERSITY, published 2004).

Biological target: T1, CZGFP (Aequorea victoria (GFP part); CZ helix …)
T1 construct: Expressed in E. coli BL21(DE3) and purified for the in vitro assays; expressed from a pET11a plasmid in the colony assays; also called EK-CGFP; C-terminal GFP fusion peptide
Experiment: competition: EK peptide added to refolding NZGFP/CZGFP complex (4 µM), fluorescence at 505 nm; competitor of NZGFP
Description: For inhibition experiments all fluorescence measurements were made in triplicate on a Hitachi F-4500 Fluorescence Spectrophotometer with excitation at 475 nm and emission at 505 nm. A 1.2 mM stock solution of equimolar amounts of NZGFP/CZGFP was allowed to reassemble and fluoresce until there was no change in fluorescence (36 hours). The reassembled complex was denatured in 4 M GdmHCl for 4 hours following which different concentrations of EK peptide, NGFP, or CGFP were added and the NZGFP/CZGFP concentration adjusted to 800 μM. The samples were diluted 200 fold into 2 mM DTT, 10 mM Tris.HCl buffer at pH 7.2 to a 20 mM final concentration of Gdm.HCl and allowed to refold and fluoresce. In order to eliminate artifacts from time dependent inhibition, fluorescence measurements were made after 4 hours and after 16 hours and found to be constant.
To verify that the GRIP assay could be utilized for detecting inhibitors of protein-protein interactions (Zutshi, R., et al., 1998, Curr. Opin. Chem. Biol. 2, 62-66), a LZ peptide corresponding to the LZ present in NZGFP (FIG. 4) was synthesized. The reappearance of fluorescence of the disassembled NZGFP/CZGFP complex in an in vitro assay as a function of added peptide was monitored (FIG. 6). The EK peptide (SEQ ID NO: 1) prevented the assembly of the complex (4 μM) with an IC₅₀ value of 31 μM. […]

T1 sequence (chain, as listed by the source): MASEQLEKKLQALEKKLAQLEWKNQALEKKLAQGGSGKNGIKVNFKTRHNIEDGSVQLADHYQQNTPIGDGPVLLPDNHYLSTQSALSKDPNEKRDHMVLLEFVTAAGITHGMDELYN

B1: EK peptide (peptide)
peptide: ALKKELQANKKELAQLKWELQALKKELAQ
notes: Chemically synthesized and HPLC purified; also called LZ peptide
**Q.** With B1 as the binder, how does the IC50 read?
**A.** Its IC50 is 31 µM.
